Where two headings read alike, the source gives them in different places.

The target in assay [1] is prolactin receptor (Homo sapiens) (UniProt P16471). Particulars: cited from earlier work.
Assay [2] has the same target. The conditions noted are these: cited from earlier work. This is another data set of the same source.
The target in assay [3] is T1, extracellular domain of the human prolactin receptor (human, UniProt P16471 25-234, biotin (site not stated; in the phage ELISA)).
T1 chain: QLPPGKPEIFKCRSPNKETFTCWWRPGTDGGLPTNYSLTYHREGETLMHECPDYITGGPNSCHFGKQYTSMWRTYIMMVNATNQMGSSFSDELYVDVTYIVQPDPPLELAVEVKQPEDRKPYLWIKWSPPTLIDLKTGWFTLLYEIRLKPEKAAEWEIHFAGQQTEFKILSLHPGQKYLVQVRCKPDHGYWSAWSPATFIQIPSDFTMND
In words: ELISA; competition with phage-displayed sAB A8.

For assay [4], the target named is T1, extracellular domain of the human …. In words: ELISA; competition with phage-displayed sAB A9.
Assay [5] has the same target. The experiment in a line: ELISA; competition with phage-displayed sAB A10.
In assay [6] the target is T2, extracellular domain of the human prolactin receptor (human, UniProt P16471 25-234, biotin (site not stated; in the phage ELISA)).
T2 construct: prolactin receptor, human, extracellular domain (two tandem fibronectin domains FN1 and FN2); No methods in the main text; also called hPRL-R; hPRL-R ECD
T2 sequence (looked up): T1 chain
In words: ELISA; competition phage ELISA; biotinylated receptor immobilised on streptavidin plates; hGH or PRL titrated against phage-displayed sAB. Particulars: both partners purified. A general note: In an ELISA, binding on a coated surface is turned into a signal by an enzyme label.

The target of assay [7] is T3, extracellular domain of the human prolactin receptor (human, UniProt P16471, biotin (site not stated; in the phage ELISA)).
T3 construct: prolactin receptor, human, extracellular domain (two tandem fibronectin domains FN1 and FN2); No methods in the main text; also called hPRL-R; hPRL-R ECD
In words: SPR; Biacore 2000; dissociation constant calculated from the on and off rates. Particulars: both partners purified.

Take growth hormone (from UniProt P01241): the Kd – broadly, the concentration at which binding is half-saturated – in assay [1] was 1 nM.
On to prolactin (from UniProt P01236), for which, in assay [2], the Kd is 6 nM.

B1: human prolactin (ligand, UniProt P01236 29-227, looked up)
chain: LPICPGGAARCQVTLRDLFDRAVVLSHYIHNLSSEMFSEFDKRYTHGRGFITKAINSCHTSSLATPEDKEQAQQMNQKDFLSLIVSILRSWNEPLYHLVTEVRGMQEAPEAILSKAVEIEEQTKRLLEGMELIVSQVHPETKENEIYPVWSGLPSLQMADEESRLSAYYNLLHCLRRDSHKIDNYLKLLKCRIIHNNNC
notes: prolactin, human; Labelled with cy5 in the internalization experiment; also called hPRL; PRL
For the molecule B1, the results for the IC50 in assay [3], in assay [4] and in assay [5] were 11 nM, 13 nM and 9 nM, respectively. The binding result in assay [6] is “binds”.

B2: synthetic antibody (sAB) A8 (Fab, V domains shown)
VH: EVQLVESGGGLVQPGGSLRLSCAASGFNFSSSSMHWVRQAPGQGLEWVAYISPYYGSTSYADSVKGRFTISADTSKNTAYLQMNSLRAEDTAVYYCARSYGYVYWNAYSSGMDYWGQGTLVTVSS
VL: DIQMTQSPSSLSASVGDRVTITCRASQSVSSAVAWYQQKPGKAPKLLIYSASSLYSGVPSRFSGSRSGTDFTLTISSLQPEDFATYYCQQYYSYYYPFTFGQGTKVEIK
notes: Fab scaffold before loop H1; heavy chain loop 1 (H1), randomized loop; Fab scaffold between H1 and H2; heavy chain loop 2 (H2), randomized loop; Fab scaffold between H2 and H3; heavy chain loop 3 (H3), randomized loop; Fab scaffold after H3 (rest of VH and CH1); Fab scaffold before loop L3; light chain loop 3 (L3), randomized loop; Fab scaffold after L3 (rest of VL and CL); Only the four …
B2: in assay [7], the Kd is 5.6 nM, the koff (usually a measure of how fast the partners let go of each other) was 0.00054 s⁻¹ and the kon (usually the rate constant with which the complex forms) was 96000 M⁻¹ s⁻¹.

These data come from publication PMC4300558 (Cell Communication and Signaling : CCS, 2015).
